This is an account of results in patent US20090074793A1 (published 2009).

Assay [1] addresses T1, hIL-4R on engineered HK293 cells (human STAT6 and STAT6 luciferase reporter) (human, UniProt P24394 26-232).
T1 sequence: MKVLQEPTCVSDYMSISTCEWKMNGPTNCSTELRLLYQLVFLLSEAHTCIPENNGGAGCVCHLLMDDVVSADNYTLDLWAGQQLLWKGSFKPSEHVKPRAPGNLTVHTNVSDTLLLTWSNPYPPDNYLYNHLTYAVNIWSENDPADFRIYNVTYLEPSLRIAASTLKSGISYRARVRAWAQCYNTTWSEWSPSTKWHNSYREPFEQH
Briefly: cell-based or functional assay.

In assay [2] the target is T2, mfIL-4R of the cellular bioassay (monkey (Macaca fascicularis), UniProt P24394 26-231 (human entry)).
T2 chain: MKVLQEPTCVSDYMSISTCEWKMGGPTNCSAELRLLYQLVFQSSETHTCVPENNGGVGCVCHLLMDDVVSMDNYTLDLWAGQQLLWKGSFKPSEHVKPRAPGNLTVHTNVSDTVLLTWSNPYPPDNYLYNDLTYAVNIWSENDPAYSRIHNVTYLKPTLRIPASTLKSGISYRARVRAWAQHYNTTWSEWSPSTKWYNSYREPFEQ
The assay is described as follows: cell-based or functional assay.

Assay [3] addresses T3, dimeric hIL-4R-mFc (human, UniProt P24394 26-232).
T3 construct: not shown: mFc (mouse Fc)
T3 sequence: T1 sequence
Briefly: ELISA-based solution competition, 25 pM hIL-4R-mFc, free receptor on biotin-hIL4 plate. The method, then: (§1) Antibody-antigen binding affinity was also assessed using an ELISA-based solution competition assay. Briefly, a 96-well MAXISORP™ plate was first coated with 5 μg/ml avidin overnight followed by BSA blocking for 1 hr. […] The plate was used to measure either free hIL-4R-mFc (dimeric hIL-4R) or free hIL-4R-myc-myc-his (hIL4R-mmh, monomeric hIL4R) in the antibody titration sample solutions. […] After 1 hr binding, the plate was washed and bound hIL-4R-mFc was detected using either an HRP-conjugated mouse anti-mFc polyclonal antibody or an HRP-conjugated goat anti-myc polyclonal antibodies. IC₅₀ values were determined (Table 2).
In general terms: In an ELISA, binding on a coated surface is turned into a signal by an enzyme label.

Assay [4] addresses T3, dimeric hIL-4R-mFc. Briefly: SPR (BIACORE 2000), antibody captured on anti-hFc, dimeric hIL-4R-mFc, 25° C. The method, then: (§2) Briefly, antibody was captured on a goat anti-hFc polyclonal antibody surface created through direct coupling to a BIACORE™ chip to form a captured antibody surface. Various concentrations (ranging from 50 nM to 12.5 nM) of monomeric hIL-4R (R&D Systems) or dimeric hIL-4R-mFc were injected over the captured antibody surface at 10 μl/min for 2.5 min at either 25° C. or 37° C. Binding of antigen to antibody and dissociation of the bound complex, were monitored in real time. Equilibrium dissociation constants (KD) and dissociation rate constants were ascertained by performing kinetic analysis using BIA evaluation software. BIA evaluation software was also used to calculate the half-life of antigen/antibody complex dissociation (T_{1/2}). […] Control: a fully human anti-IL-4R antibody (U.S. Pat. No. 7,186, 809; SEQ ID NOs:10 and 12).
(In general: In SPR one partner is held on a chip, and binding of the other changes the refractive index at the surface.)

Assay [5] addresses T4, monomeric hIL-4R (R&D Systems) (human, UniProt P24394 26-232, limits assumed).
T4 construct: Bought protein (R&D Systems); also called human IL-4 receptor alpha
T4 sequence: T1 sequence
Briefly: SPR (BIACORE 2000), antibody captured on anti-hFc, monomeric hIL-4R, 25° C. Here is the method: as §2

The target of assay [6] is T4, monomeric hIL-4R (R&D Systems). The assay is described as follows: SPR (BIACORE 2000), antibody captured on anti-hFc, monomeric hIL-4R, 37° C. The method, then:
as §2

Assay [7] addresses T3, dimeric hIL-4R-mFc. The assay is described as follows: SPR (BIACORE 2000), antibody captured on anti-hFc, dimeric hIL-4R-mFc, 37° C. The method, then:
as §2

Assay [8] has as its target T5, hIL-4R-myc-myc-his (human, UniProt P24394 26-232).
T5 construct: also called hIL-4R-mmh; hIL4R-mmh; not shown: myc-myc-his tag
T5 sequence: T1 sequence
Briefly: ELISA-based solution competition, 200 pM hIL-4R-mmh, free receptor on biotin-hIL4 plate. The method, then: as §1

B1: H4H098P (antibody, V domains shown)
VH: EVQLVESGGGLEQPGGSLRLSCAGSGFTFRDYAMTWVRQAPGKGLEWVSSISGSGGNTYYADSVKGRFTISRDNSKNTLYLQMNSLRAEDTAVYYCAKDRLSITIRPRYYGLDVWGQGTTVTVS
VL: DIVMTQSPLSLPVTPGEPASISCRSSQSLLYSIGYNYLDWYLQKSGQSPQLLIYLGSNRASGVPDRFSGSGSGTDFTLKISRVEAEDVGFYYCMQALQTPYTFGQGTKLEIK
Take B1: in assay [1], the “IC50 (pM), STAT6 luciferase bioassay, 10 pM hIL-4” value (“IC50 (pM) … 10 pM hIL-4” below) was found to be 27 pM and the “IC50 (pM), STAT6 luciferase bioassay, 40 pM hIL-13” value (shortened to “IC50 (pM) … 40 pM hIL-13”) was determined as 25 pM. Besides, the “IC50, bioassay in the presence of 360 fM mfIL-4” value in assay [2] worked out at 150 nM.

B2: H4H095P (antibody, V domains shown)
VH: QVQLVESGGGVVQPGRSLRLSCAASGFTFRSYGMHWVRQAPGKGLEWVAVISYDGSNKYYIDSVKGRFTISRDNSKNTLNLQMNSLRLEDTAVYYCAKEGRGGFDYWGQGTLVTVSS
VL: DIQMTQSPSSLSASVGDRVTITCRASQVINNYLAWFQQKPGKVPKSLIHAASSLQSGVPSKFSGSGSGTDFTLTISSLQPEDFATYYCQQYNSHPWTFGQGTKVEIK
notes: Human anti-hIL-4R antibody captured via anti-hFc
As to B2, the IC50 came out at 0.04 nM in assay [3] and 0.09 nM in assay [8]. Also, the Kd in assay [4] turned out to be 0.302 nM; in assay [5], 0.274 nM; in assay [6], 0.437 nM; in assay [7] it was 0.314 nM. The T1/2 stood at 2.6 h in assay [4], 2.18 h in assay [5], 0.817 h in assay [6] and 1.93 h in assay [7]. The “IC50 (pM) … 10 pM hIL-4” value in assay [1] came to 98 pM. Moreover, the “IC50 (pM) … 40 pM hIL-13” value in assay [1] worked out at 86 pM.

B3: H4H083P (antibody, V domains shown)
VH: EVQLVESGGGLVQPGRSLRLSCEASGFTFDDYAMHWVRQAPGKGLEWVSGLSRTSVSIGYADSVKGRFTISRDNAKNSLYLEMNSLRPEDTALYYCAKWGTRGYFDYWGQGTLVTVSS
VL: DIQMTQSPSSVSASVGDRVTITCRASQDISIWLAWYQQSPGKAPKLLINVASRLQSGVPSRFSGSGSGTDFTLTINSLQPEDFVTYYCQQANSFPITFGQGTRLEIK
notes: as for B2
As for B3, the results for the IC50 in assay [3] and in assay [8] were 0.0096 nM and 0.08 nM, respectively. Besides, the T1/2 amounted to 4.08 h in assay [4], 6.02 h in assay [5], 1.45 h in assay [6] and 2.72 h in assay [7]. Also, the Kd in assay [5] amounted to 0.048 nM; in assay [6] it was 0.183 nM; in assay [7], 0.0381 nM. Also, in assay [1], the “IC50 (pM) … 10 pM hIL-4” value was 25 pM. In assay [1], the “IC50 (pM) … 40 pM hIL-13” value was found to be 19 pM.

For orientation: IC50 means the concentration needed to halve the response being measured. Broadly, the Kd is a measure of binding affinity in units of concentration.
